Values of other authors in PMC10539808.

Molecular target: Lys66 (UniProt position 148, FTKKMKENAKK)
Settings: not stated (quoted literature value; no ligand mentioned)

**Q.** With “Staphylococcal nuclease (SNase), Delta+PHS/V66K variant (Staphylococcus aureus; P117G;H124L;S128A;del44-49;G50F;V51N;V66K)” as the substance, how does the pKa read?
**A.** 5.7 and ∼ 5.6
